Assay results reported in patent US9959384 (BIONIZ, dated 2018).
No end group written: not given here.

Target: T1, human common gamma chain (γc, CD132) (human, UniProt P31785 23-369)
T1 sequence (looked up): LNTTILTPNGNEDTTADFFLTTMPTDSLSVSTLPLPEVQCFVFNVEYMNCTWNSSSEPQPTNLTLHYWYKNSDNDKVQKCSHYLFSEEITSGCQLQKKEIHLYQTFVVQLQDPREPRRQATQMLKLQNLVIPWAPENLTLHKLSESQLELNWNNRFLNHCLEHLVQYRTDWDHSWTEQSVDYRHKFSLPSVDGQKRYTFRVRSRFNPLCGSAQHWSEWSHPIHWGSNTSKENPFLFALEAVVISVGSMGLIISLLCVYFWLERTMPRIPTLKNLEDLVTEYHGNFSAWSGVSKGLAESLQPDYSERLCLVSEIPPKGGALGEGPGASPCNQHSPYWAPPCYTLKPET
Assay: cell-based or functional assay

## IKEFLQSFIHIVQSIINT (not fully specified) [BNZ132-1 peptide]
  IC50 of inhibition of IL-2/IL-15-induced proliferation of ex vivo human T-lymphocytes (IL-2 + IL-15, 0.1 nM each): 150 nM
